From patent US20240425590A1 (VIBRANT PHARMA, published 2024)

B1: CEA-4N1-TA1+4O1 (bispecific antibody, human IgG4 S228P, F234A L235A)
chain 1: EVQLVESGGGFVQAGESLTLSCTSSTLTFTPYRMAWYRQAPGKQRDLVADISSGDGRTTNYADFAKGRFTISRDNIKNTVFLRMTNLKPEDTAVYYCNTFVSFVGIARSWGQGTQVTVSSESKYGPPCPPCPAPEAAGGPSVFLFPPKPKDTLMISRTPEVTCVVVDVSQEDPEVQFNWYVDGVEVHNAKTKPREEQFNSTYRVVSVLTVLHQDWLNGKEYKCKVSNKGLPSSIEKTISKAKGQPREPQVYTLPPCQEEMTKNQVSLWCLVKGFYPSDIAVEWESNGQPENNYKTTPPVLDSDGSFFLYSRLTVDKSRWQEGNVFSCSVMHEALHNHYTQKSLSLSLGGGGSGGGGSEVKLLESGGGLVQPKGSLKLSCAASGFTFNTYAMNWVRQAPGKGLEWVARIRSKYNNYATYYADSVKDRFTISRDDSQSILYLQMNNLKTEDTAMYYCVRHGNFGNSYVSWFAYWGQGTLVTVSSGGGGSGGGGSGGGGSQAVVTQESALTTSPGETVTLTCRSSTGAVTTSNYANWVQEKPDHLFTGLIGGTNKRAPGVPARFSGSLIGDKAALTITGAQTEDEAIYFCALWYSNLWVFGGGTKVEIKRT
chain 2: ESKYGPPCPPCPAPEAAGGPSVFLFPPKPKDTLMISRTPEVTCVVVDVSQEDPEVQFNWYVDGVEVHNAKTKPREEQFNSTYRVVSVLTVLHQDWLNGKEYKCKVSNKGLPSSIEKTISKAKGQPREPQVCTLPPSQEEMTKNQVSLSCAVKGFYPSDIAVEWESNGQPENNYKTTPPVLDSDGSFFLVSRLTVDKSRWQEGNVFSCSVMHEALHNRFTQKSLSLSL
B2: TA1-4N1+CEA-4O1 (bispecific antibody, human IgG4 S228P, F234A L235A)
chain 1: EVKLLESGGGLVQPKGSLKLSCAASGFTFNTYAMNWVRQAPGKGLEWVARIRSKYNNYATYYADSVKDRFTISRDDSQSILYLQMNNLKTEDTAMYYCVRHGNFGNSYVSWFAYWGQGTLVTVSSGGGGSGGGGSGGGGSQAVVTQESALTTSPGETVTLTCRSSTGAVTTSNYANWVQEKPDHLFTGLIGGTNKRAPGVPARFSGSLIGDKAALTITGAQTEDEAIYFCALWYSNLWVFGGGTKVEIKRTESKYGPPCPPCPAPEAAGGPSVFLFPPKPKDTLMISRTPEVTCVVVDVSQEDPEVQFNWYVDGVEVHNAKTKPREEQFNSTYRVVSVLTVLHQDWLNGKEYKCKVSNKGLPSSIEKTISKAKGQPREPQVYTLPPCQEEMTKNQVSLWCLVKGFYPSDIAVEWESNGQPENNYKTTPPVLDSDGSFFLYSRLTVDKSRWQEGNVFSCSVMHEALHNHYTQKSLSLSL
chain 2: EVQLVESGGGFVQAGESLTLSCTSSTLTFTPYRMAWYRQAPGKQRDLVADISSGDGRTTNYADFAKGRFTISRDNIKNTVFLRMTNLKPEDTAVYYCNTFVSFVGIARSWGQGTQVTVSSESKYGPPCPPCPAPEAAGGPSVFLFPPKPKDTLMISRTPEVTCVVVDVSQEDPEVQFNWYVDGVEVHNAKTKPREEQFNSTYRVVSVLTVLHQDWLNGKEYKCKVSNKGLPSSIEKTISKAKGQPREPQVCTLPPSQEEMTKNQVSLSCAVKGFYPSDIAVEWESNGQPENNYKTTPPVLDSDGSFFLVSRLTVDKSRWQEGNVFSCSVMHEALHNRFTQKSLSLSL
B3: CEA-4N1+4O1-TA1 (bispecific antibody, human IgG4 S228P, F234A L235A)
chain 1: EVQLVESGGGFVQAGESLTLSCTSSTLTFTPYRMAWYRQAPGKQRDLVADISSGDGRTTNYADFAKGRFTISRDNIKNTVFLRMTNLKPEDTAVYYCNTFVSFVGIARSWGQGTQVTVSSESKYGPPCPPCPAPEAAGGPSVFLFPPKPKDTLMISRTPEVTCVVVDVSQEDPEVQFNWYVDGVEVHNAKTKPREEQFNSTYRVVSVLTVLHQDWLNGKEYKCKVSNKGLPSSIEKTISKAKGQPREPQVYTLPPCQEEMTKNQVSLWCLVKGFYPSDIAVEWESNGQPENNYKTTPPVLDSDGSFFLYSRLTVDKSRWQEGNVFSCSVMHEALHNHYTQKSLSLSL
chain 2: ESKYGPPCPPCPAPEAAGGPSVFLFPPKPKDTLMISRTPEVTCVVVDVSQEDPEVQFNWYVDGVEVHNAKTKPREEQFNSTYRVVSVLTVLHQDWLNGKEYKCKVSNKGLPSSIEKTISKAKGQPREPQVCTLPPSQEEMTKNQVSLSCAVKGFYPSDIAVEWESNGQPENNYKTTPPVLDSDGSFFLVSRLTVDKSRWQEGNVFSCSVMHEALHNRFTQKSLSLSLGGGGSGGGGSEVKLLESGGGLVQPKGSLKLSCAASGFTFNTYAMNWVRQAPGKGLEWVARIRSKYNNYATYYADSVKDRFTISRDDSQSILYLQMNNLKTEDTAMYYCVRHGNFGNSYVSWFAYWGQGTLVTVSSGGGGSGGGGSGGGGSQAVVTQESALTTSPGETVTLTCRSSTGAVTTSNYANWVQEKPDHLFTGLIGGTNKRAPGVPARFSGSLIGDKAALTITGAQTEDEAIYFCALWYSNLWVFGGGTKVEIKRT
B4: CEA-4N1+TA1-4O1 (bispecific antibody, human IgG4 S228P, F234A L235A)
chain 1: EVQLVESGGGFVQAGESLTLSCTSSTLTFTPYRMAWYRQAPGKQRDLVADISSGDGRTTNYADFAKGRFTISRDNIKNTVFLRMTNLKPEDTAVYYCNTFVSFVGIARSWGQGTQVTVSSESKYGPPCPPCPAPEAAGGPSVFLFPPKPKDTLMISRTPEVTCVVVDVSQEDPEVQFNWYVDGVEVHNAKTKPREEQFNSTYRVVSVLTVLHQDWLNGKEYKCKVSNKGLPSSIEKTISKAKGQPREPQVYTLPPCQEEMTKNQVSLWCLVKGFYPSDIAVEWESNGQPENNYKTTPPVLDSDGSFFLYSRLTVDKSRWQEGNVFSCSVMHEALHNHYTQKSLSLSL
chain 2: EVKLLESGGGLVQPKGSLKLSCAASGFTFNTYAMNWVRQAPGKGLEWVARIRSKYNNYATYYADSVKDRFTISRDDSQSILYLQMNNLKTEDTAMYYCVRHGNFGNSYVSWFAYWGQGTLVTVSSGGGGSGGGGSGGGGSQAVVTQESALTTSPGETVTLTCRSSTGAVTTSNYANWVQEKPDHLFTGLIGGTNKRAPGVPARFSGSLIGDKAALTITGAQTEDEAIYFCALWYSNLWVFGGGTKVEIKRTESKYGPPCPPCPAPEAAGGPSVFLFPPKPKDTLMISRTPEVTCVVVDVSQEDPEVQFNWYVDGVEVHNAKTKPREEQFNSTYRVVSVLTVLHQDWLNGKEYKCKVSNKGLPSSIEKTISKAKGQPREPQVCTLPPSQEEMTKNQVSLSCAVKGFYPSDIAVEWESNGQPENNYKTTPPVLDSDGSFFLVSRLTVDKSRWQEGNVFSCSVMHEALHNRFTQKSLSLSL
B5: 4N1-TA1+CEA-4O1 (bispecific antibody, human IgG4 S228P, F234A L235A)
chain 1: ESKYGPPCPPCPAPEAAGGPSVFLFPPKPKDTLMISRTPEVTCVVVDVSQEDPEVQFNWYVDGVEVHNAKTKPREEQFNSTYRVVSVLTVLHQDWLNGKEYKCKVSNKGLPSSIEKTISKAKGQPREPQVYTLPPCQEEMTKNQVSLWCLVKGFYPSDIAVEWESNGQPENNYKTTPPVLDSDGSFFLYSRLTVDKSRWQEGNVFSCSVMHEALHNHYTQKSLSLSLGGGGSGGGGSEVKLLESGGGLVQPKGSLKLSCAASGFTFNTYAMNWVRQAPGKGLEWVARIRSKYNNYATYYADSVKDRFTISRDDSQSILYLQMNNLKTEDTAMYYCVRHGNFGNSYVSWFAYWGQGTLVTVSSGGGGSGGGGSGGGGSQAVVTQESALTTSPGETVTLTCRSSTGAVTTSNYANWVQEKPDHLFTGLIGGTNKRAPGVPARFSGSLIGDKAALTITGAQTEDEAIYFCALWYSNLWVFGGGTKVEIKRT
chain 2: EVQLVESGGGFVQAGESLTLSCTSSTLTFTPYRMAWYRQAPGKQRDLVADISSGDGRTTNYADFAKGRFTISRDNIKNTVFLRMTNLKPEDTAVYYCNTFVSFVGIARSWGQGTQVTVSSESKYGPPCPPCPAPEAAGGPSVFLFPPKPKDTLMISRTPEVTCVVVDVSQEDPEVQFNWYVDGVEVHNAKTKPREEQFNSTYRVVSVLTVLHQDWLNGKEYKCKVSNKGLPSSIEKTISKAKGQPREPQVCTLPPSQEEMTKNQVSLSCAVKGFYPSDIAVEWESNGQPENNYKTTPPVLDSDGSFFLVSRLTVDKSRWQEGNVFSCSVMHEALHNRFTQKSLSLSL
B6: 4N1-TA1+4O1-CEA (bispecific antibody, human IgG4 S228P, F234A L235A)
chain 1: ESKYGPPCPPCPAPEAAGGPSVFLFPPKPKDTLMISRTPEVTCVVVDVSQEDPEVQFNWYVDGVEVHNAKTKPREEQFNSTYRVVSVLTVLHQDWLNGKEYKCKVSNKGLPSSIEKTISKAKGQPREPQVYTLPPCQEEMTKNQVSLWCLVKGFYPSDIAVEWESNGQPENNYKTTPPVLDSDGSFFLYSRLTVDKSRWQEGNVFSCSVMHEALHNHYTQKSLSLSLGGGGSGGGGSEVKLLESGGGLVQPKGSLKLSCAASGFTFNTYAMNWVRQAPGKGLEWVARIRSKYNNYATYYADSVKDRFTISRDDSQSILYLQMNNLKTEDTAMYYCVRHGNFGNSYVSWFAYWGQGTLVTVSSGGGGSGGGGSGGGGSQAVVTQESALTTSPGETVTLTCRSSTGAVTTSNYANWVQEKPDHLFTGLIGGTNKRAPGVPARFSGSLIGDKAALTITGAQTEDEAIYFCALWYSNLWVFGGGTKVEIKRT
chain 2: ESKYGPPCPPCPAPEAAGGPSVFLFPPKPKDTLMISRTPEVTCVVVDVSQEDPEVQFNWYVDGVEVHNAKTKPREEQFNSTYRVVSVLTVLHQDWLNGKEYKCKVSNKGLPSSIEKTISKAKGQPREPQVCTLPPSQEEMTKNQVSLSCAVKGFYPSDIAVEWESNGQPENNYKTTPPVLDSDGSFFLVSRLTVDKSRWQEGNVFSCSVMHEALHNRFTQKSLSLSLGGGGSGGGGSEVQLVESGGGFVQAGESLTLSCTSSTLTFTPYRMAWYRQAPGKQRDLVADISSGDGRTTNYADFAKGRFTISRDNIKNTVFLRMTNLKPEDTAVYYCNTFVSFVGIARSWGQGTQVTVSS

Molecular target: T1, human carcinoembryonic antigen-related cell adhesion molecule 5 (human, UniProt P06731 35-702)
T1 sequence (looked up): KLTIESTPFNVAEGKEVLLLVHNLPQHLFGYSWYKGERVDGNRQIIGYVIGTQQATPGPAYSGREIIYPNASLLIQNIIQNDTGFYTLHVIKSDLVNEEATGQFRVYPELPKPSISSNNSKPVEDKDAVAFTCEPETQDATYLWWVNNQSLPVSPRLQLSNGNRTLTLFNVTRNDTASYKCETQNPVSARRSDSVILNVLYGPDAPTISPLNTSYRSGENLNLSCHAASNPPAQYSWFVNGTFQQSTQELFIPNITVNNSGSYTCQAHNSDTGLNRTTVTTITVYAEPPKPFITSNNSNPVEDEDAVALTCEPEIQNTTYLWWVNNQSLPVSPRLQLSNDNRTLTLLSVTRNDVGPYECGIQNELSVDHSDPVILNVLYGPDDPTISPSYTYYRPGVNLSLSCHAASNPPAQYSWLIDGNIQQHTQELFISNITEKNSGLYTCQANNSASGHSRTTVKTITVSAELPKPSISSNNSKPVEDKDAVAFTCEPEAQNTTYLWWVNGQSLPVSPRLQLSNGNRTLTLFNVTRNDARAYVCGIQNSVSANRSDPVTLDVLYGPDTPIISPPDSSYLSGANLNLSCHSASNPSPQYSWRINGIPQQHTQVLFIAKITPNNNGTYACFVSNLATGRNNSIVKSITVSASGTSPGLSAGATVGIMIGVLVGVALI
Test: cell-based or functional assay

Row | Binder | EC50 (pM) of TCB-mediated killing of LS-174T target cells co-cultured with human PBMCs (viability read-out)
1 | B1 | 0.4 pM
2 | B2 | 3.1 pM
3 | B3 | 9 pM
4 | B4 | 0.005 pM
5 | B5 | 6 pM
6 | B6 | 6.7 pM
